# Results: the nanobody polyreactivity screen of Harvey et al. (2022)
# Assay: yeast display, Sf9 membrane polyspecificity reagent, FACS + sequencing; frameworks hold sequencing errors
# In short: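 Synthetic nanobody libraries on Saccharomyces cerevisiae BJ5465 were galactose-induced for 36–48 hours, stained 1 hour at 4 °C with 10% biotinylated, detergent-solubilized Sf9 membrane reagent and enriched on streptavidin microbeads. FACS then separated cells into low and high (top ~1%) gates by anti-HA (expression) and streptavidin (reagent binding) fluorescence. Genes were colony-PCR amplified, MiSeq 2 × 250 sequenced and CDR-length filtered. A clone's polyreactivity label is that of its gate of origin.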
row,Sequence,polyreactivity (PSR sort gate)
1,QVQLVESGGGLVQAGGSLRLSCAASGFIFGRYAMGWYRQAPGKERELVAAITSGGRTYYADSVKGRFTISRDNAKNTVYLQMNSLKPEDTAVYYCAKRVGRYWTAGYYWGQGTQVTVSS,high polyreactivity
2,QVQLVESGGCLVQAGGSLSLSCAASGFIFDHNAMGWYRQAPGKERELVAAITWRGDSTYYADSVKGRFTISRDTAKNSVYVQMNSLKPEDTAVYYCNADAILVYYGKLDYWGQGTQVTVSS,low polyreactivity
3,QVQLVESGGGLVQAGGSLRLSCAASGSTFAYYAMGWYRQAPGKERELVAAISWSGGSTYYADSVKGRFTISRDNAKNTVYLQMNSLKPEDTAVYYCNKRNVLDYDYWGQGTQVTVSS,low polyreactivity
4,QVQLVESGGGLVQAGGSLRLSCAASGRIFRPNAMGWYRQAPGKEREFVAAITSSSGTTYYADSVKGRFTISRDNAKNTVYLQMNSLKPEDTAVYYCAAAQRSVRLKFGYWGQGTQVTVSS,high polyreactivity
5,QVQLVESGGGLVQAGGSLRLSCAASGRILPSNAMGWYRQAPGKEREFVAGISGSGGSTYYADSVKGRFTISRDNAKNTVYLQMNSLKPEDTAVYYCAAGRAYDGTKHDYWGQGTQVTVSS,high polyreactivity
6,QVQLVESGGGLVQAGGSLRLSCAASGYTFCVYVMGWYRQAPGKERELVAAISGSTYYADSVKGRFTISRDNAKNTVYLQMNSLKPEDTAVYYCAAESYFFSPRTREKFDYWGQGTQVTVSS,low polyreactivity
7,QDQLVESGGGLVQAGGSLRLICSASGIILGSNAMGWYRQAPGKERELVAAITSSGSTYYADSVKGRFTISRDNAKNTVYIQMNSLKPEDTAVYYCATGWLRRAVRFNYWGQGTQVTLSS,high polyreactivity
8,QVQLVESGGGLVQAGGSLRLSCSASGRTFDVYAMGWYRQAPGKERELVATIRSDGSTTYADSVKGRFTISRDNAKNTVYLQMNSLKPEDTAVYFCAADFRSGFSSSTTPVQSDWGQGTQVTVSS,low polyreactivity
9,QVQLVESVGGLVQAGGSLPLSCAASGSTFVDYDMGWYRQAPGKERELVAAITYSGARTYYADSVKGRFTISRDNAKNTVYLQMNSLTPEDSAVYYGNADQRTASDQLEFDYWGQGTQVTVSS,low polyreactivity
10,QVQLVESGGGLVQAGGSLRLSCAASGRIFTYYAMRWYRQAPGKERELVAGITGSGASTYYADSVKGRFTISRDNAKNTVYLQMNSLKPEDTAVYYCNAPYVIRPFRGRYDYWGQGTLVTVSS,high polyreactivity
11,QVQLVESGGGLVQAGGSLRLSCAASGSISPANTMGWYRQAPGKEREFVAGISRRGGRTYYADSVKGRFTISRDNAKNTVYLQMNSLIPEDTAVYYCATALIVRGPSRYEYWGQGTQVTVSS,high polyreactivity
12,QVQLVESAGGLVQEGGRLRLSCAASGITLGAYAMGRYRQAPGKEREMVARIRIGGSKYYADSVKGRFTISRDNEKNTVYLQMNSLKPEDTAVYYCATRWQEYAGDYWGDYWGQGTHVTVSS,low polyreactivity
13,QVQLVESGGGLVQAGGSLRLSCAASRFTIIPYDMGRYRQAPGKERELVATISRGGSTNYADSVKGRFTISRENAKNTVYLQMNSLKPEDTAVYYCAAEYKVVFSQPYCEYDYWGQGTQVTVSS,low polyreactivity
14,QVQLVESGGGLVQAGGSLPLSCAASGSIFGGNDMGWYRQAPGKERELVAAITSSGGSTYYADSVKGRFTITRDNAKITVYCQMNRLKPEVTAVYYCNADYYGPYRDYGYWGQGTQVTVSS,low polyreactivity
15,QVQLVESGGGLVQAGGSLRLSCAASGSTFSYNDMGWYRQAPGKERELVAAISSGGSTKYADSVKGRFTISRDNAKNTVYLQMNSLKPEDTAVYYCNVDVKGRPTFWSPFGRFDYWGQGTQVTVSS,high polyreactivity
16,QVQLVESGGGLVQAGGSHRLSCAASGSILDTYAMGWYRQAPGKERELVAAISRGGRTYYADSVKGRFTLSRDNAKNTVYLQMNSLKPEDTAVYYCNTLTRLVYDGMGYWGQGTQVTVSS,high polyreactivity
17,QVQLVESGGGLVQAGGSLRLSCAASGFTFAGYAMGWYRQAPGKEMELVAAINYRGVRTYYADSVKGRFTISRDNSKNTVYLQMNSLIPEDTAVYYCAALPFLPGGGYVIHRFYYWGQGSQVTVSS,high polyreactivity
18,QVHLVESGGGLVQAGGSLRLSCASSASIINVYAMGWYRQAPGKEREFVADINYSGGSTYADSVKGRFTISRDNAKNTVYLQMYSVKPEDTAVYYCADVYGYLYYELYYWGQGTQVTVSS,low polyreactivity
19,QVQLVESGGGLVQAGGSLRLSCAASGFIFGANAMGWYRQAPGKERELVADINRGSTYYADSVKGRFTISRDNAKNTVYLQMNSLKPEDTAVYYCNRVYTQTFNPWGFEYWGQGTQVTVSS,high polyreactivity
20,QVQLVESGGGLVQAGGSLRLSCAASGFTFFVNTMGWYRQAPGKERELVAAISYDGGSTTYADSVKGRFTISRDNAKNTVYLQMNSLKPEDTAVYYCAAEYWAPFDYGTNSGYEYWGQGTQVTVSS,low polyreactivity
21,QVQLVESGGGLVQAGGSLRLSCAASGFTFYKYAMGWYRQAPGKERELVAAINWSGGSTYYADSVKGRFTISRDNAKNTVYLQMNSLKPEDTAVYYCAAERGTTYAYDYWGQGTQVTVSS,high polyreactivity
22,QVQLVESGGGLVQAGGSLRLSCAASGSIFVYNAMGWYRQAPGKERELVAGITFIGGSTYYADPVKGRFTISRDNAKNTVYLQMNSLKPEDTAVYYCNADVAPGIFYGYDSWGQGTQVTVSS,low polyreactivity

row,Sequence,polyreactivity (PSR sort gate)
1,QVQLVESGGGLGQAGGSLRSSCAASGSIICYYAMGWYRQAPGKEWELVATITSGGSTSYADSVKGRFTISRDNAKNTVHLQMNSLKPEDTAVYYCAARNVTKSTYNYWGQGTQVTVSS,low polyreactivity
2,QVHLVESGGGLVQAGGSLRLSCAASGRTFATNTMGWYRQAPGKEREFVAAISRGGVSTSYADSVKGRFTISRDNAKNTVYLQMNSLKPEDTAVYYCAAKHYGFNRNHRHSYDYWGQGTQVTVSS,high polyreactivity
3,QVQLVESGGGLVQAGGSLRLSCAASGRIFSRYAMGWYRQAPGKERELVAAINKSGGSTYYADSVKGRFTISRDNAKNTVYLQMNSLKPEDTAVYYCATDDPVYDYDYWGQGTQVTVSS,high polyreactivity
4,QVQLVDSGGGLVQAGGSLRLSCAASGRISNYYAMGWYRQAPGKERELVAAITRSGGSTYYADSVKGRFTISRDNAKNTVYLQMNSLKPEDTAVYYCATDWTVRYDYWGQGTQVTVSS,high polyreactivity
5,QVQLVESGGGLVQAGGSLRLSCAASGFTFRNYAMGWYRQAPGKERELVAAISKRGGNTYYADSVKGRFTISRDNAKNTVYLQMNSLKPEDTAVYYCARKYFRTSNLYGYWGQGTQVTVSS,high polyreactivity
6,QVQLVESGGGLVQAGGSLRLSCAASGSIFSRYTRGWYRQAPGKEWELVASISRRGGRTYYADSVKGRFTISRDNAKNTVYLQMNSPKPEDTAVYYCNARGHGSAVGPFTRVNSWGQGTQVTVSS,high polyreactivity
7,QVQLVESGGGLVQAGGSLRLSCAASGSIFDRNAMGWYRQAPGKERELVATITWSGVSTYYADSVKGRFTISRDNAKNTVYLQMKSLKPEDTAVYYCYADYSYRHWYDPGQYGQAMGYWGQGTKVTVSS,low polyreactivity
8,QVQLVESGGGLVQAGGSLRLSCAASGSTFKSYAMGWYRQAPGKERELVAAITRGGSTNYADSVKGRFTISRDNAKNTVYLQMNSLKPEDTAVYYCAKTYRYRTMDYWGQGTQVTVSS,low polyreactivity
9,QVQLVESGGGLVQAGGSLRLSFAASGNIFTFNAMGLYRQATGKDRELDAAIRSGGSTNYADSVKGRFTISRDNAKNTVDLQMNSLKPEDTAVYYCAAKRYVQGYVYRYGYWGQGTQVTVSS,high polyreactivity
10,QVQLVESGGGLDQAGGSLRLSCAASGSNLVSNDMGWYRQAPGKERELVAAMSWSGGSTYYADSVKGRFTISRDNAKNTVYLHMNSLKPEDTAVYYCAAGFGFLFARQELEFDYWGQGTQVTVSS,low polyreactivity
11,QVQLVESGGGLVQAGGSLRLSCAASGFIIAYYAMGWYRQAPGKERELVAAISRRGGSTYYADSVKGRFTISRDNAKNTVYLQMNSLKPEDTAVYYCAKAHYLSDYNYWGQGTQVTVSS,high polyreactivity
12,QVQLVESGGGLVQAGGSLRLSCAASGRTFYVNAMGWYRQAPGKERELVAGISFSDGSTYYADSVKGRFTISRDNAKNTVYLQMNSLKPEDTAVYYCASVGAFDIYYGYGYWGQGTQVTVSS,low polyreactivity
13,QVQLVESGGGLVQAGGSLRLSCAASGFTFRWYAMGWYRQAPGKERELVAAITHSGGSTYYADSVKGRFTISRDNAKNTVYLQMNSLKPEDTAVYYCAAGYIRKYSAFRYNYWGQGTQVTVSS,high polyreactivity
14,QVHHVESVGGLVQAGGILRLSSAASGRTFDRYAMGWYRQEPGKERELVAAISSGGSTYYADSVKGRFTISRDNAKNTVYLQMNSLKPEDTADYYCNAGKTFDFRDGVGYDHWGQGTQVTVSS,low polyreactivity
15,QVQLVESGGGLVQAGGSLRLSCAASGSTFYKYAMGWYRQAAGKERELVASISRSGGSTSYADSVKGRFTISRDNGKNTVYLQMYCLKPEDTAVYYCAATWRQHPGSMGYWGQGTQVTVSS,high polyreactivity
16,QVQLVESGGGLVQAGGSLRLSCAASGRIFYYNAMGWYRQAPGKERELVAAITSGGSTNYADSVKGRFTISPDNAKNTVYLQMNSLKPEDTAVYYCNARRYGSPRSEVHYDYCGQGTQVTVSS,low polyreactivity
17,QVQLLESGGGLVQAGGSLRLSCAASGRIFHYNAMGWYRQAPGKERELVAAITRRGTSTYYADSVKGRFTISRDNAKNTVYLQMNSLKPEDTAVYYCNTDTYYRLLDYWGQGTQVTVSS,low polyreactivity
18,QVQLVESGGGLVQAGGSLRLSCAASGSTFDKYTMGWYRQAPGKERELVATISRSGTSTNYADSVKGRFTISRDNAKNTVYLQLNSLKPEDTAVYYCAAVMRWRDLFSEYYYWGQGTQVTVSS,high polyreactivity
19,QVQLEESRGGLVQAGGSLRLICAASGFTFRQNAMGWYRQAPGKERELVAAISRGGGGTHYADSVKGRFSISRDNAKNTVYLQMNSLKPEDTAVYYCAKRRYPTFVVPVYYWGQGTQVTVSS,high polyreactivity
20,QVQLVESGGGIVQAGGSLRLSCAASGGTCWFYDMGWYRQAPGKERELVAAINSDGSTYYADSVKGRFTISRDNAMNTVYLQMNSLQPEDTAVYYCAADISLHWYYYRRYNYWGQGTQGTVSS,low polyreactivity
21,QVQLQESGGGLVQAGGSLRLSCAASGTISPLPAMGWYRQAPGKEREFVAGIDTGAITNYADSVKGRFTISRDNAKNTVYLQMISLKPEDTAVYYCAVFPAAYYYYERFYTYWGQGTQVTVSS,low polyreactivity
